From article PMC8653885, “Higher expression of the strawberry xyloglucan endotransglucosylase/hydrolase genes FvXTH9 and FvXTH6 accelerates fruit ripening” (The Plant Journal, 2019) come the findings set out here.

In the series the test system is T1, OC[C@@H](O)[C@@H](O[C@@H]1O[C@H](CO[C@H]2OC[C@@H](O)[C@H](O)[C@H]2O)[C@@H](O[C@@H]2O[C@H](CO[C@H]3OC[C@@H](O)[C@H](O)[C@H]3O)[C@@H](O[C@@H]3O[C@H](CO[C@H]4OC[C@@H](O)[C@H](O)[C@H]4O)[C@@H](O)[C@H](O)[C@H]3O)[C@H](O)[C@H]2O)[C@H](O)[C@H]1O)[C@H](O)[C@@H](O)CO.
T1 construct: called FvXTH6 by Opazo et al. 2017
The series is described as follows: radiochemical XET assay, 3H incorporation into xyloglucan, Michaelis-Menten. The series is classed as biochemical, Fragaria vesca. Particulars: acceptor substrate, donor 1% (w/v) tamarind xyloglucan, [3H]XXXGol diluted with unlabelled XXXGol (0-357 μM), labelled compound, general XET assay: 100 mM Na succinate pH 5.5, 25 °C.

For FvXTH9 (Fragaria vesca subsp. vesca), the Km was 43 µM.

What is called Km is the substrate concentration at which the rate is half of its maximum.
